B1: Nse3 (natural protein, S. cerevisiae)
chain: MSSIDNDSDVDLTEDLAVAKIVKENPVARKMVRYILSRGESQNSIITRNKLQSVIHEAAREENIAKPSFSKMFMDINAILYNVYGFELQGLPSKNNMNAGGNGSNSNTNKSMPEPLGHRAQKFILLNNVPHSKNFDDFKILQSAHTYEELIVTGEYIGDDIASGTSNTLESKLSTDRDLVYKGVLSVILCIVFFSKNNILHQELIKFLETFGIPSDGSKIAILNITIEDLIKSLEKREYIVRLEEKSDTDGEVISYRIGRRTQAELGLESLEKLVQEIMGLEKEQTKSLHDDIIKSIGDSYSI
modifications: BS3-crosslinked within the holo-complex
B2: Nse1 (natural protein, S. cerevisiae)
chain: MEVHEEQVSAPVTGDATAKYLLQYILSARGICHENALILALMRLETDASTLNTEWSIQQWVDKLNDYINAINVKLNLLGYKIIRINHGIGRNAVTLKAKQNFESFEDNTAIRAHNNDYAVLQSIVLPESNRFFVYVNLASTEETKLATRFNQNEIEFMKWAIEQFMISGETIVEGPALETSIIVKEVNRILVAATGDSNLAKWRKFSTFTVGSTNLFQFQELTATDIEDLLLRLCELKWFYRTQEGKFGIDLRCIAELEEYLTSMYNLNTCQNCHKLAIQGVRCGNESCREENEETGENSLSQIWHVDCFKHYITHVSKNCDRCGSSLITEGVYVI
modifications: BS3-crosslinked within the holo-complex
B3: Nse2 (Mms21) (natural protein, S. cerevisiae)
chain: ALNDNPIPKSVPLHPKSGKYFHNLHARDLSNIYQQCYKQIDETINQLVDSTSPSTIGIEEQVADITSTYKLLSTYESESNSFDEHIKDLKKNFKQSSDACPQIDLSTWDKYRTGELTAPKLSELYLNMPTPEPATMVNNTDTLKILKVLPYIWNDPTCVIPDLQNPADEDDLQIEGGKIELTCPITCKPYEAPLISRKCNHVFDRDGIQNYLQGYTTRDCPQAACSQVVSMRDFVRDPIMELRCKIAKMKESQEQDKRSSQAIDVL
modifications: BS3-crosslinked within the holo-complex
B4: Nse4 (HALO-tagged) (natural protein, S. cerevisiae)
chain: MSSTVISRKRRNSTVTEPDSSGETRKQKKSRSDEKSSSSKDGDPQLEFKVLQGYRDLESEMHKGRAQVTRTGDIGVAMDNLNAVDSLFNKVIGIKNNGLFAHDARAMVSISELAQISVRNLKFDDSRSMVNLENIVNSLKRYMLKEHFKLNNIAENRNDLTLAADEQSAADQQEESDGDIDRTPDDNHTDKATSSFKATSMRHSYLQQFSHYNEFSQFNWFRIGALYNTISKNAPITDHLMGPLSIEKKPRVLTQRRRNNDQVGEKITAEKITQHSLNSTQQETTPEQVKKCFKKLSKKLGPEGSINLFKFIIDPNSFSRSIENLFYTSFLIKEGKLLMEHDEEGLPTIKIKQSISHTDSRSKEIERQRRRAAHQNHIIFQMDMPTWRKLIKKYNITSPFLD
modifications: BS3-crosslinked within the holo-complex

Assays:
Assay in all cases: cryo-EM structure
[1] = target: T1, Smc5 (Walker B mutant E1015Q) (S. cerevisiae, UniProt Q08204 1-1093, E1015Q, BS3-crosslinked within the holo-complex)
T1 sequence: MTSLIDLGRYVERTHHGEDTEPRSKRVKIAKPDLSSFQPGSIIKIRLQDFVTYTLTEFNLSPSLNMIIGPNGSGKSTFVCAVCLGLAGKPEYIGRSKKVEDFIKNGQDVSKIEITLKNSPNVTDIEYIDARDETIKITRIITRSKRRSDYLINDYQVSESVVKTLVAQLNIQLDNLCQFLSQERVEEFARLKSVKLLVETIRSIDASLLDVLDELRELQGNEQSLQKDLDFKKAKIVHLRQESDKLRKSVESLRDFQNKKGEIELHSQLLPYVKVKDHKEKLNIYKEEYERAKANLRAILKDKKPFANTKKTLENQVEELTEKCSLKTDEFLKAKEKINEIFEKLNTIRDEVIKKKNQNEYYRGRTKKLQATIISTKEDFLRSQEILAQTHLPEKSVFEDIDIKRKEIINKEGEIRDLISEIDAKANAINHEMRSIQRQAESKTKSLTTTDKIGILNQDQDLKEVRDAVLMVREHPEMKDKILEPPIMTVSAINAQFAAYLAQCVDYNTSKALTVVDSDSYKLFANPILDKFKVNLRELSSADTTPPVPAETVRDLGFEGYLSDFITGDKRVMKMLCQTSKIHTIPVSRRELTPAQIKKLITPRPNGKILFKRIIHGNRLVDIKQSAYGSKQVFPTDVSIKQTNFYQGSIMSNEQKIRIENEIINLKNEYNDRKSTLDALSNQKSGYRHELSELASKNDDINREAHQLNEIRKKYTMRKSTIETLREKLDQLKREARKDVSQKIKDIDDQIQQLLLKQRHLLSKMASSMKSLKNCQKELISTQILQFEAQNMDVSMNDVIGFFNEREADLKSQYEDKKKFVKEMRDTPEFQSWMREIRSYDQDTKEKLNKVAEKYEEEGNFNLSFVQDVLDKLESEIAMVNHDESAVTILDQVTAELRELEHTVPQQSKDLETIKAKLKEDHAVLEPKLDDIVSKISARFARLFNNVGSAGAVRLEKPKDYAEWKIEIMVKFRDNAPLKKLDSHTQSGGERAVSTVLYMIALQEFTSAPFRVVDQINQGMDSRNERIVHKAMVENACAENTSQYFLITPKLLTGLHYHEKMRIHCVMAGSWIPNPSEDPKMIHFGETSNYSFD

Nse1 = target: B2
Nse4 (HALO-tagged) = target: B4
[2] = target: T2, Smc6 (Walker B mutant E1048Q) (S. cerevisiae, UniProt Q12749 1-1114, E1048Q, BS3-crosslinked within the holo-complex)
T2 sequence: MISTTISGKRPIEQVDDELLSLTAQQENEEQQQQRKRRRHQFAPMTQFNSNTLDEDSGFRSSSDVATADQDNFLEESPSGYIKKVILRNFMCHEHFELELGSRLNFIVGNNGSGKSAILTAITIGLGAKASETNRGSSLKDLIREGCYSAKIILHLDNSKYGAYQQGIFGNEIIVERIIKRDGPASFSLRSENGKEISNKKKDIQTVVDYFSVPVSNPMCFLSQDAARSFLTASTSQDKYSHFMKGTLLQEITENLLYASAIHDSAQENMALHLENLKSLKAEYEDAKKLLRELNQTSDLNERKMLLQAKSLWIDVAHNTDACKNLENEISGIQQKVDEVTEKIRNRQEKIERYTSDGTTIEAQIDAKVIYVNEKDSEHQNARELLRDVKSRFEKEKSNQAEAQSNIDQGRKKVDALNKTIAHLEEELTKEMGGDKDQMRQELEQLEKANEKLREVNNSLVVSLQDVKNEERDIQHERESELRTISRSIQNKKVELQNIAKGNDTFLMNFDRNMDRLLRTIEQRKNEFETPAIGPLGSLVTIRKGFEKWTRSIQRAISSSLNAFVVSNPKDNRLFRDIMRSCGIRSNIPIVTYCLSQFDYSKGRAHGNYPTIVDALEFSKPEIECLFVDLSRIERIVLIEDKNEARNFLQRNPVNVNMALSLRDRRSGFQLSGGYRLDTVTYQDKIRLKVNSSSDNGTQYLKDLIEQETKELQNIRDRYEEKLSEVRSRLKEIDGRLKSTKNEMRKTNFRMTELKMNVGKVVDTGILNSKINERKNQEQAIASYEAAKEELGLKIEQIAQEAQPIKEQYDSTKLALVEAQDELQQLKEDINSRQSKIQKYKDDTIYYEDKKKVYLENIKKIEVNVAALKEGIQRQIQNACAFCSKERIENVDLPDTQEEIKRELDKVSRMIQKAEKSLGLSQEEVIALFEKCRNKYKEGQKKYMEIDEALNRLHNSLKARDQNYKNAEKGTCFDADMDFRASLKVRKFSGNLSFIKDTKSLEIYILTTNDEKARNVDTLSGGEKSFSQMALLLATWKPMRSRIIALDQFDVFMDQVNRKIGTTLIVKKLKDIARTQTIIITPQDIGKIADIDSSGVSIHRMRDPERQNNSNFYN

Q: Which results are given for B1?
A: binding result [1]: binds; binding result (Nse1): binds; binding result (Nse4 (HALO-tagged)): binds

Q: Does B2 bind [1]?
A: binds

Q: Does B2 bind (Nse4 (HALO-tagged))?
A: binds

Q: What does the source list for B3?
A: binding result [1]: binds; binding result [2]: binds

Q: Does B4 bind [1]?
A: binds

Q: Does B4 bind [2]?
A: binds
